From paper PMC9407403 (Proceedings of the National Academy of Sciences of the …, 2022)

B1: neutralizing antibody X10 (mouse monoclonal antibody) (antibody, V domains shown)
VH: EVQLQQSGPELVKPGASVKISCKTSGYTFTEYTLHWVKQSHGKSLEWIGGFDPNFGGATYNLKFEDKATLTVDKSSNTAYMELRSLTSEDSAVFYCARGDYGTSYAYFDFWGQGTTLTVSS
VL: DIVLTQSPASLAVSLGQRAAISCRASQSVSTSSHNYVHWYQQRPGQPPKLLIKYASNLECGVPARFSGSGSGTDFTLNIHPVEEEDSAAYYCQHSWEIPYTFGGGTKLEIK
notes: also called nAb X10; cluster 2 representative; source: mouse hybridoma, ascitic fluid, purified (protein A agarose)
B2: neutralizing antibody X17 (mouse monoclonal antibody) (antibody, V domains shown)
VH: QVQLQQSGAELARPGASVKLSCKASGYTFTFYWMQWLKQRPGQGLEWIGAIYPGDGDTRYTQRFKDKATLTADKSSSTAYIQLSSLASEDSAVYYCAGGEYDNYGFDYWGQGTTLTVSS
VL: DIQMTQTTSSLSASLGDRVTISCRASQDISNYLNWYQQKPDGTVKLLIYYTSRLHSGVPSRFSGSGSGTDYSLTISNLEQEDIATYFCQQGTTLPYTFGGGTKLEIK
notes: also called nAb X17; cluster 1 representative; source: mouse hybridoma, ascitic fluid, purified (protein A agarose)

Target: T1, SARS-CoV-2 receptor-binding domain (RBD), recombinant antigen (SARS-CoV-2, UniProt P0DTC2)
T1 construct: source: bought: Wantai BioPharm (microplates precoated with recombinant RBD)
Test: ELISA
Conditions: both partners purified

Binder | binding result
B1 | binds
B2 | binds
